{"source": "paper PMC10582422", "about": "“Alzheimer's Progenitor Amyloid‐β Targets and Dissolves Microbial Amyloids and Impairs Biofilm Function” (Advanced Science, 2023)", "molecules": {"B1": {"name": "Lecanemab: humanized IgG1 monoclonal antibody that binds with soluble protofibrils of Aβ (antibody, chains of the INN, looked up, V domains shown)", "VH": "EVQLVESGGGLVQPGGSLRLSCSASGFTFSSFGMHWVRQAPGKGLEWVAYISSGSSTIYYGDTVKGRFTISRDNAKNSLFLQMSSLRAEDTAVYYCAREGGYYYGRSYYTMDYWGQGTTVTVSS", "VL": "DVVMTQSPLSLPVTPGAPASISCRSSQSIVHSNGNTYLEWYLQKPGQSPKLLIYKVSNRFSGVPDRFSGSGSGTDFTLRISRVEAEDVGIYYCFQGSHVPPTFGPGTKLEIK"}, "B2": {"name": "FapC: FapC prepared recombinantly in E. coli; amyloid protein secreted by P. aeruginosa (protein, UniProt Q9I2F0 25-340, looked up)", "Functional amyloid subunit …": "GNEGGWHPPKPNPQSNNKGGATALVVDTQQNYNNKVSNFGTLNNASVSGSIKDASGNVGVNVAAGDNNQQANAAALASADASFVFGTATASTSVLQSGYGNTLNNYSNPNTASLSNSANNVSGNLGVNVAAGNFNQQKNDLAAAVSNGQYSTAGSAASQTSTGNTTVNSANYAYGGTYVSLKLNADGSYKGTSDQIGDVYLDTWEGQTHPGGSNTGHIDVDSQAQGAKDLNHDGGAFAFKEKGDVDLKGTVSGFIPAIVGFKTPVTNNASLSNSLQNVSGNVGVNIAAGGGNQQSNSLSIAAGCSSCPAGGESLGF"}, "B3": {"name": "sonicated FapC: Sonicated FapC seeds used as control (protein, UniProt Q9I2F0 25-340, looked up)", "Functional amyloid subunit …": "B2 Functional amyloid subunit …", "modifications": "sonicated fibril seeds", "notes": "Sonicated FapC seeds used as control"}}, "key": {"P. aeruginosa PAO1": {"system": "P. aeruginosa PAO1", "test": "Antimicrobial sensitivity assay (MBEC peg biofilm), PAO1", "format": "cell-based", "settings": "combined with Pen", "protocol": "(§1) Microbial culture of K12 and PAO1 were added to 96‐well plates at OD 0.3 and incubated overnight at the static condition at 37 °C with Minimum Biofilm Eradication Concentration (MBEC) peg lids (Innovotech, Edmonton, Canada) where biofilms were formed on the pegs. […] After overnight incubation in the challenge plate, peg lids were removed, and swabs of the culture were picked from the pegs and streaked onto LB agar plates. The plates were incubated overnight at 37 °C and surviving colonies were confirmed by visual inspection and counted with the software Promega Colony Counter."}, "E. coli K‐12": {"system": "E. coli K‐12", "test": "Antimicrobial sensitivity assay (MBEC peg biofilm), K-12", "format": "cell-based", "settings": "combined with Pen", "protocol": "as §1"}, "CsgA fibrils [1]": {"target": "T1, CsgA fibrils (Escherichia coli, UniProt P28307)", "T1 construct": "made in house; host or cells: E. coli", "T1 sequence (P28307 21-151)": "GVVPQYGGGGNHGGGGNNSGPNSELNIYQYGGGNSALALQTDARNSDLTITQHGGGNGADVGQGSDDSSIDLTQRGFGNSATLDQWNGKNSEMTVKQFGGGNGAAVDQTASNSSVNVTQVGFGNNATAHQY", "format": "biochemical, E. coli", "settings": "DLS, incubated without Aβ, as for TEM; n = 3", "protocol": "(§2) Quartz cells with low volume capacity (100 µL) were used and measurements were performed using a Malvern Zetasizer Nano Series running DTS software and using a 4 mW He−Ne laser operating at a wavelength of 633 nm and equipped with an avalanche photodiode (APD) detector. The scattered light was detected at an angle of 173°."}, "CsgA fibrils [2]": {"target": "T1, CsgA fibrils", "format": "biochemical, E. coli", "protocol": "(§3) The percentage secondary structure was calculated by the CD data via Dichroweb analysis with parameters of Contin/reference set 4."}, "Caco‐2 cells": {"system": "Caco‐2 cells", "test": "Cell adhesion of FapC and CsgA amyloids to Caco-2 cells", "format": "cell-based", "settings": "Alexa647-labelled, 10 µM, 24 h", "protocol": "In comparison, FapC or CsgA amyloids alone (10 µM), labelled with Alexa647, were incubated with the cells under the same conditions. […] The cells were incubated for additional 24 h. All the cells in this experiment were fixed in 4% PFA, washed with PBS and then subjected to confocal imaging as described above. The size and number of the FapC or CsgA amyloids attached to the membrane of Caco‐2 cells were quantified from the images using Fiji ImageJ software."}, "Zeta potential": {"test": "Zeta potential", "format": "physicochemical", "settings": "Malvern Zetasizer Nano; fibrils"}, "FapC fibrils [3]": {"system": "FapC fibrils", "test": "ThT assay: disintegration of preformed FapC fibrils", "format": "biochemical, P. aeruginosa", "settings": "1.8 – 15 µM against 50 µM FapC; ThT 72 h", "protocol": "FapC and CsgA fibrils were pre‐incubated with 50 µM of Thioflavin T dye for 3 h. […] The instrument was set to agitate the plate for 5 s before every reading. […]"}, "FapC fibrils [4]": {"system": "FapC fibrils", "test": "TEM of FapC fibrils incubated with peptide", "format": "biochemical, P. aeruginosa", "settings": "TEM at 1, 2 and 3 weeks", "from_the_text": "The samples were blotted with filter paper and grids were blotted twice with deionized water and then a drop of 1% uranyl acetate was placed on the grids for 30 s for negative staining. […] […] TEM grids were imaged with a Hitachi HT7700 TEM operating at 120 kV."}, "Aβ": {"system": "Aβ", "settings": "cited from earlier work", "from_the_text": "Amyloid‐β (Aβ) is a peptide generated from the proteolytic cleavage of amyloid precursor protein (APP) expressed on the membrane and synapses of neurons. Based on the combination of enzymes that cleave APP, i.e., α‐, β‐ or γ‐secretase, the resulting Aβ can be a 40 (Aβ40) or 42 (Aβ42) residue peptide that is intrinsically disordered in structure.^[ [1] ^] Different environmental factors, familial mutations or localized concentrations of Aβ can trigger the aggregation of Aβ into oligomers. The oligomers can subsequently assemble into long twisted fibrils characterized by a so‐called amyloid fold ..."}, "FapC fibrils [5]": {"system": "FapC fibrils", "test": "DLS size of FapC fibrils", "format": "biochemical, P. aeruginosa", "settings": "incubated without Aβ, as for TEM, n = 3", "protocol": "as §2"}, "FapC fibrils [6]": {"system": "FapC fibrils", "test": "CD spectroscopy of FapC fibrils", "format": "biochemical, P. aeruginosa", "protocol": "as §3"}, "FapC monomers": {"system": "FapC monomers", "test": "Self-seeding / fibrillization of FapC monomers (ThT, TEM)", "format": "biochemical, P. aeruginosa", "settings": "FapC monomers 15 µM"}, "[7]": {"settings": "CD, Dichroweb Contin/reference set 4, 50 µM"}}, "data": [{"molecule": "[H]/N=C(/N)N[C@H]1[C@H](O)[C@@H](O)[C@H](O[C@@H]2O[C@@H](C)[C@](O)(C=O)[C@H]2O[C@@H]2O[C@@H](CO)[C@H](O)[C@@H](O)[C@@H]2NC)[C@@H](N/C(N)=N\\[H])[C@@H]1O", "note": "[Strep]", "values": [{"measurement": "minimum concentration with slight antimicrobial effect (Strep), PAO1", "setting": "P. aeruginosa PAO1", "value": "5e-06", "unit": "µg/mL"}, {"measurement": "minimum concentration with slight antimicrobial effect (Strep), K-12", "setting": "E. coli K‐12", "value": "5e-06", "unit": "µg/mL"}]}, {"molecule": "CsgA: CsgA prepared recombinantly in E. coli; major subunit of the curli protein", "values": [{"measurement": "hydrodynamic radius of CsgA fibrils, without Aβ", "setting": "CsgA fibrils [1]", "value": "≈ 1500 nm"}, {"measurement": "CD negative peak, CsgA fibrils alone", "setting": "CsgA fibrils [2]; 50 µM CsgA without Aβ, 48 h", "value": 214, "unit": "nm"}, {"measurement": "β‐sheet content of CsgA fibrils, without Aβ", "setting": "CsgA fibrils [2]; [7]", "value": 42, "unit": "%"}, {"measurement": "size of amyloid aggregates attached to Caco-2 membrane, without Aβ", "setting": "Caco‐2 cells", "value": "≈ 30 µm"}, {"measurement": "zeta potential", "setting": "Zeta potential", "value": 37, "unit": "mV"}]}, {"molecule": "IAPP: human islet amyloid polypeptide (KCNTATCATQRLANFLVHSSNNFGAILSSTNVGSNTY; Islet amyloid polypeptide; UniProt P10997 34-70, looked up)", "values": [{"measurement": "disintegration of FapC amyloids by IAPP or aSyn", "setting": "FapC fibrils [3]", "value": "did not show any disintegration of FapC amyloids"}, {"measurement": "TEM remodeling of FapC fibrils by IAPP or aSyn monomers", "setting": "FapC fibrils [4]", "value": "no remodeling effect was observed for FapC fibrils"}]}, {"molecule": "Solanezumab: monoclonal antibody in clinical trials", "values": [{"measurement": "efficacy in phase 3 trials", "setting": "Aβ; mild form of Alzheimer's disease, ref [6], [7]", "value": "some efficacy but not much promise in phase 3 trials"}]}, {"molecule": "B1", "values": [{"measurement": "efficacy in phase 2 clinical trials", "setting": "Aβ; early onset Alzheimer's disease, ref [8]", "value": "limited improvement in cognition and reduced Aβ burden"}]}, {"molecule": "B2", "values": [{"measurement": "hydrodynamic radius of FapC fibrils, without Aβ", "setting": "FapC fibrils [5]", "value": "≈ 550 nm"}, {"measurement": "CD negative peak, FapC fibrils alone", "setting": "FapC fibrils [6]; 50 µM FapC without Aβ, 48 h", "value": 214, "unit": "nm"}, {"measurement": "random coil content of FapC fibrils, without Aβ", "setting": "FapC fibrils [6]; [7]", "value": 22, "unit": "%"}, {"measurement": "β‐sheet content of FapC fibrils, without Aβ", "setting": "FapC fibrils [6]; [7]", "value": 47, "unit": "%"}, {"measurement": "size of amyloid aggregates attached to Caco-2 membrane, without Aβ", "setting": "Caco‐2 cells", "value": "≈ 30 µm"}, {"measurement": "zeta potential", "setting": "Zeta potential", "value": 47, "unit": "mV"}]}, {"molecule": "B3", "values": [{"measurement": "self-seeding of FapC monomers by sonicated seeds", "setting": "FapC monomers", "value": "a significant increase in ThT kinetics was observed"}]}]}
